T1: human PCSK7, myc-myc-his tagged (human, UniProt Q16549 142-667, limits assumed)
T1 construct: also called hPCSK7-mmh; hPCSK7
T1 sequence: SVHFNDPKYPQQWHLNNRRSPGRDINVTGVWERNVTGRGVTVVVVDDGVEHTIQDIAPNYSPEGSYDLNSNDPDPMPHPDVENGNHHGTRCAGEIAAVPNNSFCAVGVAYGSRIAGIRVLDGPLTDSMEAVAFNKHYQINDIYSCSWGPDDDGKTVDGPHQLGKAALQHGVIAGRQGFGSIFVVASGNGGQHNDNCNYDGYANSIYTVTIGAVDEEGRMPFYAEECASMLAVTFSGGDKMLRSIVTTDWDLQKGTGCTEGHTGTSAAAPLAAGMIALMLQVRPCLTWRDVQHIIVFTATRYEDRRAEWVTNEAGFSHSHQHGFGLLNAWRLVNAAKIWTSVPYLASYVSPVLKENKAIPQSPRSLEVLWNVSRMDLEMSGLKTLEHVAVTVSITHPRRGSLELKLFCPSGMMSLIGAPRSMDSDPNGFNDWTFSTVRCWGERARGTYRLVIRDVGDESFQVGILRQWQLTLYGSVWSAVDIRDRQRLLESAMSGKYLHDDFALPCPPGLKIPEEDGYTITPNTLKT

T2: human PCSK1, myc-myc-his tagged (human, UniProt P29120 111-753, limits assumed)
T2 construct: also called hPCSK1-mmh; hPCSK1
T2 sequence: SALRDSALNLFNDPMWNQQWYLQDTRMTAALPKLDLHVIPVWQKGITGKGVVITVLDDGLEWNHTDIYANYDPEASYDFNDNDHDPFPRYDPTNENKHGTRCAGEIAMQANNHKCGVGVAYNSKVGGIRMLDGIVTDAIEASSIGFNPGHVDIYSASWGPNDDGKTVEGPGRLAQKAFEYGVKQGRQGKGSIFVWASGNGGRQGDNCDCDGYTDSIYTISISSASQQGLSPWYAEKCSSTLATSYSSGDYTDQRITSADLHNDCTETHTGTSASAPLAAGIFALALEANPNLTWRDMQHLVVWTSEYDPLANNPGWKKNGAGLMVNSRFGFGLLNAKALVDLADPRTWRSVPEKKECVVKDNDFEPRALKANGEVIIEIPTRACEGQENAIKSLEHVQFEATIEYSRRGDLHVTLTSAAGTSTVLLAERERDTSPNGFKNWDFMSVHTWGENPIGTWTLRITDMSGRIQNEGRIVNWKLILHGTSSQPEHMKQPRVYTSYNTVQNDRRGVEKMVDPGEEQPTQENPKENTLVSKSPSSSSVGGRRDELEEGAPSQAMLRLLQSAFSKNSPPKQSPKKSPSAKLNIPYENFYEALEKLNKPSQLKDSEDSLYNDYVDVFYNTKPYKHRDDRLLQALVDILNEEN

T3: his-tagged Syrian golden hamster (Mesocricetus auratus) PCSK9 (Syrian golden hamster (Mesocricetus …))
T3 construct: also called maPCSK9-h; maPCSK9
T3 chain: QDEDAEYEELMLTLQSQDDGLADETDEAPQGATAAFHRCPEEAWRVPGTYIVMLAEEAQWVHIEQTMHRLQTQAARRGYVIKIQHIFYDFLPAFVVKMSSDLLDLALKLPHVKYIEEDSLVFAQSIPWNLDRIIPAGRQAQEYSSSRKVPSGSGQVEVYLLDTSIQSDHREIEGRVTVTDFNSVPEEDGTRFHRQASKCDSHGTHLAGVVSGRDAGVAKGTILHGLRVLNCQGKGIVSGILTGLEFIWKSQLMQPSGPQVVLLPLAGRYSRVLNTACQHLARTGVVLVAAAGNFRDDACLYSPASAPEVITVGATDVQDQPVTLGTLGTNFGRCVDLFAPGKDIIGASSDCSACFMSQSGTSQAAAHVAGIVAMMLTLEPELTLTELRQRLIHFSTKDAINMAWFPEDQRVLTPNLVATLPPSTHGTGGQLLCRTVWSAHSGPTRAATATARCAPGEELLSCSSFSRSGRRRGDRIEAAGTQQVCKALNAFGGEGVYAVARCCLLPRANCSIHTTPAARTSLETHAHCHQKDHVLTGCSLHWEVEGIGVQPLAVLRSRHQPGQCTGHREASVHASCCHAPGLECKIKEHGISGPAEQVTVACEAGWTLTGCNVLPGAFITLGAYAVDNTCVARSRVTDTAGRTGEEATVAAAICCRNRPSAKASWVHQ


Assays:
[1] = target: T1, human PCSK7, myc-myc-his tagged; assay: SPR, mAb captured on anti-hFc, 25C
[2] = target: T2, human PCSK1, myc-myc-his tagged; assay: SPR, mAb captured on anti-hFc, 25C
hPCSK9(E366K) = target: T4, hPCSK9(E366K) (human, UniProt Q8NBP7 31-692); assay: SPR, mAb captured, 25C
T4 construct: mmh-tagged variant hPCSK9
From the text: (§1) Each selected antibody was captured on a F(ab′)2 anti-hIgG surface created through direct chemical coupling to a BIACORE™ chip to form a captured antibody surface.

[3] = target: T5, rat (Rattus norvegicus) PCSK9, myc-myc-his tagged (rat (Rattus norvegicus), UniProt P59996 31-691); assay: SPR, mAb amine-coupled, 37C, pH 5.5
T5 construct: also called rPCSK9-mmh; rPCSK9
From the text: (§2) Briefly, mAbs were immobilized onto BIACORE™ CM5 sensor chips via amine coupling.

[4] = target: T6, mouse PCSK9, myc-myc-his tagged (mouse, UniProt Q80W65 35-694); assay: SPR, mAb amine-coupled, 37C, pH 5.5
T6 construct: also called mPCSK9-mmh; mPCSK9
From the text: as §2

hPCSK9(D238R) = target: T7, hPCSK9(D238R) (human, UniProt Q8NBP7 31-692); assay: SPR, mAb captured, 25C
T7 construct: mmh-tagged variant hPCSK9
From the text: as §1

[5] = target: T3, his-tagged Syrian golden hamster …; assay: SPR, mAb amine-coupled, 25C, pH 5.5
From the text: as §2

[6] = target: T5, rat (Rattus norvegicus) PCSK9, …; assay: SPR, mAb amine-coupled, 25C, pH 5.5
From the text: as §2

[7] = target: T6, mouse PCSK9, myc-myc-his tagged; assay: SPR, mAb amine-coupled, 25C, pH 5.5
Target sequence in this assay (Q80W65 35-694 limits assumed): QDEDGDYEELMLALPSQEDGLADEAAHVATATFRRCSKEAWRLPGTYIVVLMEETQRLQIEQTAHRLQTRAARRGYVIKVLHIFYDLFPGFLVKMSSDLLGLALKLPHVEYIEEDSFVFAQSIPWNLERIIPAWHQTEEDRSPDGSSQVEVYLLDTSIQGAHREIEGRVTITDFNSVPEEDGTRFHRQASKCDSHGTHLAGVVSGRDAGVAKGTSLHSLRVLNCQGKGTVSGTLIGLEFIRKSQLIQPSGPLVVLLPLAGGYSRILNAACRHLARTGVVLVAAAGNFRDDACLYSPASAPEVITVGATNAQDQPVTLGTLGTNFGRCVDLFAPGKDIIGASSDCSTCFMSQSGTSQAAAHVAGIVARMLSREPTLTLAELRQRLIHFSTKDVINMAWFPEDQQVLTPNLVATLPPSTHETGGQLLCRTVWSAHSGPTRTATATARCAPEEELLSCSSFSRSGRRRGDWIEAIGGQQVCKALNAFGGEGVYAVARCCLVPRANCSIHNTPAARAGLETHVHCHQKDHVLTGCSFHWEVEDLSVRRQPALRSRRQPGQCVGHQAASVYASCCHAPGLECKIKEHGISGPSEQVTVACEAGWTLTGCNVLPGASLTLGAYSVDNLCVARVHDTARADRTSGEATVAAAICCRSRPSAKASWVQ
From the text: as §2

Human PCSK9-myc-myc-his = target: T8, Human PCSK9-myc-myc-his (human, UniProt Q8NBP7 31-692); assay: SPR, mAb captured, 25C
T8 construct: also called hPCSK9-mmh; hPCSK9
Method: Each selected antibody was captured at a flowrate of 2 μl/min for 6 min on a goat anti-human IgG polyclonal antibody surface created through direct chemical coupling to a BIACORE™ chip to form a captured antibody surface.

T5 sequence (P59996 31-691 limits assumed): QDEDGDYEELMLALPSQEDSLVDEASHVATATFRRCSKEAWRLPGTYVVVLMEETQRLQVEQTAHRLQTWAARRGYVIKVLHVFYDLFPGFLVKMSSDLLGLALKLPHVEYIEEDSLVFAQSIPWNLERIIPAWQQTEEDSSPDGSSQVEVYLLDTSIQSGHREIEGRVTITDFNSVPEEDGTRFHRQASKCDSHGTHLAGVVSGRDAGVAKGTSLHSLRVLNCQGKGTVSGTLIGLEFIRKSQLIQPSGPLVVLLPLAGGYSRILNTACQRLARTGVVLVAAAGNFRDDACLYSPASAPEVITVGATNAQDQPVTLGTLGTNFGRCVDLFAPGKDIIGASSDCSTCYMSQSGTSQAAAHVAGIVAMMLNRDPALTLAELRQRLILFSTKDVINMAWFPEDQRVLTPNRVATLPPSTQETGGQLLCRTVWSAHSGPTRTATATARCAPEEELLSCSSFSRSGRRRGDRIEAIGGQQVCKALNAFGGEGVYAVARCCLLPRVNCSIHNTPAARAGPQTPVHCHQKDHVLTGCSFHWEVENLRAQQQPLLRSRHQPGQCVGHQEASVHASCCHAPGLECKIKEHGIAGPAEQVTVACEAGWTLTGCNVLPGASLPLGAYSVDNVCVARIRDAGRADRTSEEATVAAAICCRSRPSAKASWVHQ

Row | binding result [1] | binding result [2] | fold reduction of binding against wildtype hPCSK9 (hPCSK9(E366K)) [fold] | Binder | Kd [3] [nM] | T1/2 [3] [min] | Kd [4] [nM] | T1/2 [4] [min] | fold reduction of binding affinity against wildtype hPCSK9 (hPCSK9(D238R)) [fold] | fold shortening of T1/2 against wildtype hPCSK9 (hPCSK9(D238R)) [fold] | Kd [5] [nM] | T1/2 [5] [min] | Kd [6] [nM] | T1/2 [6] [min] | Kd [7] [nM] | T1/2 [7] [min] | Kd (Human PCSK9-myc-myc-his) [nM] | T1/2 (Human PCSK9-myc-myc-his) [min]
1 | no binding (tested: 100 nM) | no binding (tested: 100 nM) | ~50 | H1M300N (antibody, V domains shown, Fully human version made in CHO cells) VH: EMQLVESGGGLVQPGGSLRLSCAASGFTFSSHWMKWVRQAPGKGLEWVANINQDGSEKYYVDSVKGRFTISRDNAKNSLFLQMNSLRAEDTAVYYCARDIVLMVYDMDYYYYGMDVWGQGTTVTVSS VL: not shown |  |  |  |  |  |  |  |  |  |  |  |  |  | 
2 |  |  |  | H1H316P (antibody, V domains shown, Fully human mAb made in CHO cells; also called mAb316P) VH: EVQLVESGGGLVQPGGSLRLSCAASGFTFNNYAMNWVRQAPGKGLDWVSTISGSGGTTNYADSVKGRFIISRDSSKHTLYLQMNSLRAEDTAVYYCAKDSNWGNFDLWGRGTLVTVSS VL: not shown | 0.399 | 1 | 13.6 | 3 | > 400 | ~30 | 0.087 | 8 | 0.349 | 5 | 0.063 | 11 | 0.377 | 42

From patent US20130064834A1 (published 2013)
